According to patent US20220298218A1 (ANTAG THERAPEUTICS, published 2022):
Where no end group is shown, it is not given here. The star is where a group is joined. C16 diacid = O=C(O)CCCCCCCCCCCCCCC(=O)*

B1: AT453 (peptide)
peptide: EGTFISDYSIAMDKIK(C16 diacid)QQDFVNWLLAQKGKKNDWKHNI-OH
modifications: N-terminus assumed
SMILES: CC[C@H](C)[C@H](NC(=O)[C@H](CC(N)=O)NC(=O)[C@H](Cc1c[nH]cn1)NC(=O)[C@H](CCCCN)NC(=O)[C@H](Cc1c[nH]c2ccccc12)NC(=O)[C@H](CC(=O)O)NC(=O)[C@H](CC(N)=O)NC(=O)[C@H](CCCCN)NC(=O)[C@H](CCCCN)NC(=O)CNC(=O)[C@H](CCCCN)NC(=O)[C@H](CCC(N)=O)NC(=O)[C@H](C)NC(=O)[C@H](CC(C)C)NC(=O)[C@H](CC(C)C)NC(=O)[C@H](Cc1c[nH]c2ccccc12)NC(=O)[C@H](CC(N)=O)NC(=O)[C@@H](NC(=O)[C@H](Cc1ccccc1)NC(=O)[C@H](CC(=O)O)NC(=O)[C@H](CCC(N)=O)NC(=O)[C@H](CCC(N)=O)NC(=O)[C@H](CCCCNC(=O)CCCCCCCCCCCCCCC(=O)O)NC(=O)[C@@H](NC(=O)[C@H](CCCCN)NC(=O)[C@H](CC(=O)O)NC(=O)[C@H](CCSC)NC(=O)[C@H](C)NC(=O)[C@@H](NC(=O)[C@H](CO)NC(=O)[C@H](Cc1ccc(O)cc1)NC(=O)[C@H](CC(=O)O)NC(=O)[C@H](CO)NC(=O)[C@@H](NC(=O)[C@H](Cc1ccccc1)NC(=O)[C@@H](NC(=O)CNC(=O)[C@@H](N)CCC(=O)O)[C@@H](C)O)[C@@H](C)CC)[C@@H](C)CC)[C@@H](C)CC)C(C)C)C(=O)O
B2: AT452 (peptide)
peptide: EGTFISDYSIAMDKIK(C16 diacid)QQDFVNWLLAQKGKKNDWKH-OH
modifications: N-terminus assumed
SMILES: CC[C@H](C)[C@H](NC(=O)[C@H](CO)NC(=O)[C@H](Cc1ccc(O)cc1)NC(=O)[C@H](CC(=O)O)NC(=O)[C@H](CO)NC(=O)[C@@H](NC(=O)[C@H](Cc1ccccc1)NC(=O)[C@@H](NC(=O)CNC(=O)[C@@H](N)CCC(=O)O)[C@@H](C)O)[C@@H](C)CC)C(=O)N[C@@H](C)C(=O)N[C@@H](CCSC)C(=O)N[C@@H](CC(=O)O)C(=O)N[C@@H](CCCCN)C(=O)N[C@H](C(=O)N[C@@H](CCCCNC(=O)CCCCCCCCCCCCCCC(=O)O)C(=O)N[C@@H](CCC(N)=O)C(=O)N[C@@H](CCC(N)=O)C(=O)N[C@@H](CC(=O)O)C(=O)N[C@@H](Cc1ccccc1)C(=O)N[C@H](C(=O)N[C@@H](CC(N)=O)C(=O)N[C@@H](Cc1c[nH]c2ccccc12)C(=O)N[C@@H](CC(C)C)C(=O)N[C@@H](CC(C)C)C(=O)N[C@@H](C)C(=O)N[C@@H](CCC(N)=O)C(=O)N[C@@H](CCCCN)C(=O)NCC(=O)N[C@@H](CCCCN)C(=O)N[C@@H](CCCCN)C(=O)N[C@@H](CC(N)=O)C(=O)N[C@@H](CC(=O)O)C(=O)N[C@@H](Cc1c[nH]c2ccccc12)C(=O)N[C@@H](CCCCN)C(=O)N[C@@H](Cc1c[nH]cn1)C(=O)O)C(C)C)[C@@H](C)CC
B3: AT362 (peptide)
peptide: EGTFISDYSIAMDKIK(C16 diacid)QQDFVNWLLAQKGKKNDWKHN-OH
B4: AT451 (peptide)
peptide: EGTFISDYSIAMDKIK(C16 diacid)QQDFVNWLLAQKGKKNDWK-OH
modifications: N-terminus assumed
SMILES: CC[C@H](C)[C@H](NC(=O)[C@H](CO)NC(=O)[C@H](Cc1ccc(O)cc1)NC(=O)[C@H](CC(=O)O)NC(=O)[C@H](CO)NC(=O)[C@@H](NC(=O)[C@H](Cc1ccccc1)NC(=O)[C@@H](NC(=O)CNC(=O)[C@@H](N)CCC(=O)O)[C@@H](C)O)[C@@H](C)CC)C(=O)N[C@@H](C)C(=O)N[C@@H](CCSC)C(=O)N[C@@H](CC(=O)O)C(=O)N[C@@H](CCCCN)C(=O)N[C@H](C(=O)N[C@@H](CCCCNC(=O)CCCCCCCCCCCCCCC(=O)O)C(=O)N[C@@H](CCC(N)=O)C(=O)N[C@@H](CCC(N)=O)C(=O)N[C@@H](CC(=O)O)C(=O)N[C@@H](Cc1ccccc1)C(=O)N[C@H](C(=O)N[C@@H](CC(N)=O)C(=O)N[C@@H](Cc1c[nH]c2ccccc12)C(=O)N[C@@H](CC(C)C)C(=O)N[C@@H](CC(C)C)C(=O)N[C@@H](C)C(=O)N[C@@H](CCC(N)=O)C(=O)N[C@@H](CCCCN)C(=O)NCC(=O)N[C@@H](CCCCN)C(=O)N[C@@H](CCCCN)C(=O)N[C@@H](CC(N)=O)C(=O)N[C@@H](CC(=O)O)C(=O)N[C@@H](Cc1c[nH]c2ccccc12)C(=O)N[C@@H](CCCCN)C(=O)O)C(C)C)[C@@H](C)CC
B5: AT361 (peptide)
peptide: EGTFISDYSIAMDKIK(C16 diacid)QQDFVNWLLAQKGKKNDW-OH
modifications: N-terminus assumed
SMILES: CC[C@H](C)[C@H](NC(=O)[C@H](CO)NC(=O)[C@H](Cc1ccc(O)cc1)NC(=O)[C@H](CC(=O)O)NC(=O)[C@H](CO)NC(=O)[C@@H](NC(=O)[C@H](Cc1ccccc1)NC(=O)[C@@H](NC(=O)CNC(=O)[C@@H](N)CCC(=O)O)[C@@H](C)O)[C@@H](C)CC)C(=O)N[C@@H](C)C(=O)N[C@@H](CCSC)C(=O)N[C@@H](CC(=O)O)C(=O)N[C@@H](CCCCN)C(=O)N[C@H](C(=O)N[C@@H](CCCCNC(=O)CCCCCCCCCCCCCCC(=O)O)C(=O)N[C@@H](CCC(N)=O)C(=O)N[C@@H](CCC(N)=O)C(=O)N[C@@H](CC(=O)O)C(=O)N[C@@H](Cc1ccccc1)C(=O)N[C@H](C(=O)N[C@@H](CC(N)=O)C(=O)N[C@@H](Cc1c[nH]c2ccccc12)C(=O)N[C@@H](CC(C)C)C(=O)N[C@@H](CC(C)C)C(=O)N[C@@H](C)C(=O)N[C@@H](CCC(N)=O)C(=O)N[C@@H](CCCCN)C(=O)NCC(=O)N[C@@H](CCCCN)C(=O)N[C@@H](CCCCN)C(=O)N[C@@H](CC(N)=O)C(=O)N[C@@H](CC(=O)O)C(=O)N[C@@H](Cc1c[nH]c2ccccc12)C(=O)O)C(C)C)[C@@H](C)CC

What follows are binders tested against T1, human GIP receptor (human, UniProt P48546 22-466) (assay: cell-based or functional assay).
T1 sequence (looked up): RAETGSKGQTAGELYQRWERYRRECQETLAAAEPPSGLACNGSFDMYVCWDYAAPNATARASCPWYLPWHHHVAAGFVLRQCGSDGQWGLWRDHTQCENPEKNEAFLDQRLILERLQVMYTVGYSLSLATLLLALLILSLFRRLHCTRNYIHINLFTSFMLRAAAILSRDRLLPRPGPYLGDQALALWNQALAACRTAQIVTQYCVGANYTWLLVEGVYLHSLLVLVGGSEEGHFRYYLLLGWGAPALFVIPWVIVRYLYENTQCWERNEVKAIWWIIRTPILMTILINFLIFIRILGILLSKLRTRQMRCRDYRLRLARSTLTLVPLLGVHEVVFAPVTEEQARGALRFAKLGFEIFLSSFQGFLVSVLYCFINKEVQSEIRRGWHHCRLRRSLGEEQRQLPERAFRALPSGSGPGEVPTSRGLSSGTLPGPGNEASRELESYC

| Binder | cAMP agonism Emax | cAMP antagonism [nM] | cAMP antagonism % inhib [%] | cAMP antagonism log [log M] |
| --- | --- | --- | --- | --- |
| B1 | 6.1 | 57 | 65 | -7.2 |
| B2 | 7.2 | 5 | 75 | -8.3 |
| B3 | 7 | 5 | 86 | -8.3 |
| B4 | 9.2 | 8 | 75 | -8.1 |
| B5 | 5 | 2 | 100 | -8.8 |

Target: T1, human GIP receptor
Experiment: cell-based or functional assay
Remark: another data set of the same source

| Binder | cAMP agonism % Emax [%] | cAMP antagonism [nM] | cAMP antagonism % inhib [%] | cAMP antagonism pIC50 |
| --- | --- | --- | --- | --- |
| B1 | 0 | 6.31 | 95 | 8.2 |
| B2 | 0 | 7.59 | 97 | 8.1 |
| B3 | 0 | 14.7 | 94 | 7.8 |
| B4 | 0 | 2.33 | 99 | 8.6 |
| B5 | 0 | 3.76 | 99 | 8.4 |
